Reference: paper PMC8721105

Legend:
[1] = molecular target: TbPEX19FL-His (T. brucei); assay: ELISA
[2] = molecular target: TbPEX19FL-His (T. brucei); assay: AlphaScreen or HTRF
[3] = molecular target: GST-TbPEX3d44 (T. brucei); assay: AlphaScreen or HTRF

Kd [1] [nM]	Kd [2] [nM]	Kd [3] [nM]	Substance
0.16	32.8		GST-TbPEX3d44 (domain or fragment)
		3.7	TbPEX19-Strep (natural protein)
		9.7	tag-free TbPEX19 (natural protein)
